Consider 19 molecules from patent publication US20230060095A1 (Regeneron, published 2023).

Substitutions are numbered along the chain they refer to.

The labels stand for the following.
T1: PRAME peptide on HLA-A*02:01 (human)
T1 peptide: SLLQHLIGL

T2: peptide on HLA-A*02:01 (human)
T2 peptide: SLLMWITQC

B1: PN42712 (TCR, V domains shown)
V domain 1: GIQVEQSPPDLILQEGANSTLRCNFSDSVNNLQWFHQNPWGQLINLFYIPSGTKQNGRLSATTVATERYSLLYISSSQTTDSGVYFCAVGSSNDYKLSFGAGTTVTVRA
V domain 2: EAQVTQNPRYLITVTGKKLTVTCSQNMNHEYMSWYRQDPGLGLRQIYYSMNVEVTDKGDVPEGYKVSRKEKRNFPLILESPSPNQTSLYFCASSPGTGGFSPLHFGNGTRLTVT
B2: PN42711 (TCR, V domains shown)
V domain 1: B1 V domain 1 with A17V, Q78R, D94G
V domain 2: B1 V domain 2
B3: PN42365 (TCR, V domains shown)
V domain 1: TQLLEQSPQFLSIQEGENLTVYCNSSSVFSSLQWYRQEPGEGPVLLVTVVTGGEVKKLKRLTFQFGDARKDSSLHITAAQPGDTGLYLCAANGGSQGNLIFGKGTKLSVKP
V domain 2: DAGVTQSPTHLIKTRGQQVTLRCSPKSGHDTVSWYQQALGQGPQFIFQYYEEEERQRGNFPDRFSGHQFPNYSSELNVNALLLGDSALYLCASSLQDYGYTFGSGTRLTVV
B4: PN42689 (TCR, V domains shown)
V domain 1: B3 V domain 1 with A91E, N92D
V domain 2: B3 V domain 2 with Q96S
B5: PN42498 (TCR, V domains shown)
V domain 1: B3 V domain 1 with A91G, N92D
V domain 2: B3 V domain 2 with Q96V
B6: PN42840 (TCR, V domains shown)
V domain 1: B3 V domain 1 with A91E, N92G
V domain 2: B3 V domain 2 with L95W, Q96T
B7: PN42455 (TCR, V domains shown)
V domain 1: DAKTTQPNSMESNEEEPVHLPCNHSTISGTDYIHWYRQLPSQGPEYVIHGLTSNVNNRMASLAIAEDRKSSTLILHRSTLRDAAVYYCILRPDSWGKFQFGAGTQVVVTP
V domain 2: B3 V domain 2 with Q96V
notes: stained with anti-mouse TCR constant region antibody H57-597) and full-length chains were expressed on CHO cells
B8: PN42386 (TCR, V domains shown)
V domain 1: B3 V domain 1 with A91T
V domain 2: B3 V domain 2
B9: PN42776 (TCR, V domains shown)
V domain 1: B7 V domain 1
V domain 2: B3 V domain 2 with L95W, Q96T
notes: as for B7
B10: PN42561 (TCR, V domains shown)
V domain 1: DAKTTQPNSMESNEEEPVHLPCNHSTISGTDYIHWYRQLPSQGPEYVIHGLTSNVNNRMASLAIAEDRKSSTLILHRATLRDAAVYYCILRDGTGNQFYFGTGTSLTVIP
V domain 2: EAQVTQNPRYLITVTGKKLTVTCSQNMNHEYMSWYRQDPGLGLRQIYYSMNVEVTDKGDVPEGYKVSRKEKRNFPLILESPSPNQTSLYFCASSLWTGGGYTFGSGTRLTVV
B11: PN42707 (TCR, V domains shown)
V domain 1: GESVGLHLPTLSVQEGDNSIINCAYSNSASDYFIWYKQESGKGPQFIIDIRSNMDKRQGQRVTVLLNKTVKHLSLQIAATQPGDSAVYFCAENKRDNYGQNFVFGPGTRLSVLP
V domain 2: B10 V domain 2 with L95F, T97V, G98N, G99T, G100E, Y101A, T102F, S105Q
B12: PN42655 (TCR, V domains shown)
V domain 1: B7 V domain 1
V domain 2: B10 V domain 2
notes: as for B7
B13: PN42746 (TCR, V domains shown)
V domain 1: B11 V domain 1 with K94R, R95Q
V domain 2: B10 V domain 2 with T97V, G98N, G99T, G100E, Y101A, T102F, S105Q
B14: PN42750 (TCR, V domains shown)
V domain 1: B7 V domain 1
V domain 2: DVKVTQSSRYLVKRTGEKVFLECVQDMDHENMFWYRQDPGLGLRLIYFSYDVKMKEKGDIPEGYSVSREKKERFSLILESASTNQTSMYLCASSTVRQGNYGYTFGSGTRLTVV
notes: as for B7
B15: PN42476 (TCR)
TCR alpha: B7 V domain 1
TCR beta: EAQVTQSPRYLITVTGKKLTVTCSQNMDHEYMSWYRQDPGLGLRQIYYSMNVEVTDKGDVPEGYKVPRKEKRSFPLILESPCCSQTPLYLCASSLGGVDERLSFGSGTQLSVL
notes: as for B7
B16: PN42780 (TCR, V domains shown)
V domain 1: TQLLEQSPQFLSIQEGENLTVYCNSSSVFSSLQWYRQEPGEGPVLLVTVVTGGEVKKLKRLTFQFGDARKDSSLHITAAQPGDTGLYLCAGGTSGTYKYIFGTGTRLKVLA
V domain 2: EAQVTQNPRYLITVTGKKLTVTCSQNMNHEYMSWYRQDPGLGLRQIYYSMNVEVTDKGDVPEGYKVSRKEKRNFPLILESPSPNQTSLYFCASSPGTPNYGYTFGSGTRLTVV
B17: PN42706 (TCR, V domains shown)
V domain 1: GIQVEQSPPDLILQEGANSTLRCNFSDSVNNLQWFHQNPWGQLINLFYIPSGTKQNGRLSATTVATERYSLLYISSSQTTDSGVYFCAVEASGTYKYIFGTGTRLKVLA
V domain 2: B16 V domain 2 with P95W, P98G, N99G
B18: PN42562 (TCR, V domains shown)
V domain 1: B16 V domain 1 with T93P
V domain 2: B16 V domain 2
B19: PN42442 (TCR, V domains shown)
V domain 1: B16 V domain 1
V domain 2: B16 V domain 2 with P98A

The first experiment addresses T1, PRAME peptide on HLA-A*02:01. As to the kind of experiment: multimer staining.
Take B1: the binding result was “recognises”.
B2: the binding result is recorded as “recognises”.
On the same count and under the same terms, in the case of B3 it was “recognises”; in that of B4, “recognises”.
As for B5, the binding result was “recognises”.
For B6, the binding result is listed as “recognises”.
The same measure, in the same setting: in the case of B7 it was “recognises”; in that of B8, “recognises”.
Still for that read-out and setting: the entry for B9 is “recognises”; for B10 it is “recognises”.
Same read-out and setting: in the case of B11 it was “recognises”.
Turning to B12, the binding result was “recognises”.
As to B13, the binding result was “recognises”.
Still for that read-out and setting: in the case of B14 it was “recognises”; in that of B15, “recognises”.
B16: the binding result is reported as “recognises”.
In the case of B17, the binding result is reported as “recognises”.
Same read-out and setting: in the case of B18 it was “recognises”; in that of B19, “recognises”.

The next experiment has as its target HLA-A2/PRAME (425-433) on HLA-A2*01 HEK293T cells pulsed with PRAME 425-433 peptide (human). Kind of experiment: cell-based or functional assay.
With B1, the “EC50 (µM) of peptide, AP1 luciferase reporter in Jurkat cells expressing the TCR” value (“EC50 (µM) of peptide” for short) turned out to be 0.0133 µM.
For B2, the “EC50 (µM) of peptide” value was found to be 0.0569 µM.
Still for that read-out and setting: the figure for B3 is 0.0159 µM; for B4 it is 0.0095 µM.
On the same count and under the same terms, in the case of B5 it was 0.00242 µM; in that of B6, 0.0309 µM; in that of B8, 0.0271 µM.
Same read-out and setting: in the case of B10 it was 0.0137 µM; in that of B11, 0.0118 µM; in that of B13, 0.046 µM.
With B16, the “EC50 (µM) of peptide” value is 1.25 µM.
For the molecule B17, the “EC50 (µM) of peptide” value was found to be 0.727 µM.
For B18, the “EC50 (µM) of peptide” value amounted to 0.0281 µM.
Still for that read-out and setting: the figure for B19 is 0.232 µM.

For a further experiment, the target named is T3, soluble HLA:A2:PRAME (425-433) tetramer (human).
T3 construct: Commercial tetramer (MBL International); construct limits, biotin tag and streptavidin/fluorophore not described; also called PRAME/HLA tetramer reagent; PRAME (425-433)/HLA-A2
As to the kind of experiment: flow cytometry, soluble pMHC tetramer on CHO cells expressing the TCR.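 Further: CHO cells transfected with vectors encoding full-length paired TCR alpha and beta chains, stained with PRAME/HLA tetramer and read by flow cytometry, each value reflects one listed TCR.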
With B1, the “Cell Frequency ≥1000 MFI, ≥1% (% tetramer positive cells in the Ag+ gate)” value is 80.7%.
Regarding B2, the “Cell Frequency ≥1000 MFI, ≥1% (% tetramer positive cells in the Ag+ gate)” value is 4.26%.
On the same count and under the same terms, in the case of B3 it was 95.8%.
Still for that read-out and setting: in the case of B4 it was 4.92%; in that of B5, 90.3%; in that of B6, 52.5%.
The same measure, in the same setting: in the case of B7 it was 53%.
In the case of B8, the “Cell Frequency ≥1000 MFI, ≥1% (% tetramer positive cells in the Ag+ gate)” value is 82.2%.
On to B9, for which the “Cell Frequency ≥1000 MFI, ≥1% (% tetramer positive cells in the Ag+ gate)” value came out at 60.2%.
For B10, the “Cell Frequency ≥1000 MFI, ≥1% (% tetramer positive cells in the Ag+ gate)” value came to 80.2%.
As for B11, the “Cell Frequency ≥1000 MFI, ≥1% (% tetramer positive cells in the Ag+ gate)” value amounted to 7.28%.
Regarding B12, the “Cell Frequency ≥1000 MFI, ≥1% (% tetramer positive cells in the Ag+ gate)” value came out at 27%.
On the same count and under the same terms, in the case of B13 it was 4.39%.
Still for that read-out and setting: the figure for B14 is 40.8%; for B15 it is 54.2%.
For the molecule B16, the “Cell Frequency ≥1000 MFI, ≥1% (% tetramer positive cells in the Ag+ gate)” value came to 4.89%.
In the case of B17, the “Cell Frequency ≥1000 MFI, ≥1% (% tetramer positive cells in the Ag+ gate)” value was 24.7%.
Same read-out and setting: in the case of B18 it was 92%; in that of B19, 61.3%.

The target of another experiment is T2, peptide on HLA-A*02:01. Kind of experiment: activation reporter or marker.
With B1, the binding result is given as “no recognition”.
Regarding B2, the binding result is on record as “no recognition”.
B3: the binding result was “no recognition”.
For the molecule B4, the binding result was “no recognition”.
Turning to B5, the binding result is recorded as “no recognition”.
On the same count and under the same terms, the entry for B6 is “no recognition”; for B8 it is “no recognition”; for B10 it is “no recognition”.
Same read-out and setting: in the case of B11 it was “no recognition”.
B12: the binding result is listed as “no recognition”.
Same read-out and setting: the entry for B13 is “no recognition”.
Same read-out and setting: in the case of B16 it was “no recognition”; in that of B17, “no recognition”.
With B18, the binding result was “no recognition”.
On the same count and under the same terms, in the case of B19 it was “no recognition”.
